# Data from article PMC6447619, “New type of interaction between the SARAH domain of the tumour suppressor RASSF1A and its mitotic kinase Aurora A” (Scientific Reports, 2019).
# T1: Aurora A kinase domain (residues 107–403) (human, UniProt O14965 107-403)
# T1 construct: Aurora A kinase, human, kinase domain only, residues 107-403
# T1 sequence (looked up): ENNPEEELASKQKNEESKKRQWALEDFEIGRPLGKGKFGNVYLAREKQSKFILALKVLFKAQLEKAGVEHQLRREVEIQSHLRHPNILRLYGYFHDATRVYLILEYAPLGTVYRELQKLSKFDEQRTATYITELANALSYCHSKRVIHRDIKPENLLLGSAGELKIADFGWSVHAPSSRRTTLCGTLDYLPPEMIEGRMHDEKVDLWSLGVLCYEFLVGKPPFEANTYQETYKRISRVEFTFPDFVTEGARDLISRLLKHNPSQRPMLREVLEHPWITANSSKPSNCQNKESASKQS
# T2: Aurora A kinase domain (residues 107–403) (human) (UniProt O14965)
# T2 sequence: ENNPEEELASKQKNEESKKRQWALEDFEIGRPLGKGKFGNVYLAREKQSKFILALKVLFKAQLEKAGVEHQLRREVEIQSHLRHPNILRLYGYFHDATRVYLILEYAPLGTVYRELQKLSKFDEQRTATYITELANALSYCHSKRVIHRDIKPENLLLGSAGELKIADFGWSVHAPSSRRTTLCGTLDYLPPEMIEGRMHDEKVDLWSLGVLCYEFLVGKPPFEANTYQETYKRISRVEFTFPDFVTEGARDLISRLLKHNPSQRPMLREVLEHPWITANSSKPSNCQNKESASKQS
# Tests used:
# [1] = target: the molecule itself; assay: SEC; analytical gel filtration on Superose 6 10/300 GL, 100 μl of dilution series injected (RBD 1.5-17.5 μM, ∆N 4.5-35 μM, SARAH 1.5-80 μM), 25 mM HEPES pH 7.4, 300 mM NaCl; MBP-tagged constructs; dimer to monomers
# [2] = target: T1, Aurora A kinase domain (residues …); assay: SPR; Biacore X; Aurora A kinase domain immobilised on a CM5 chip, RASSF1A variants as analytes; HBS-EP (10 mM HEPES pH 7.4, 150 mM NaCl, 3 mM EDTA, 0.005% Tween-20), 25 °C; equilibria not reached because of irreversible aggregation on the surface; conditions: both partners purified
# [3] = target: T2, Aurora A kinase domain (residues 107–403) (human)
binding result [2],"Km of phosphorylation of ∆N-∆loop by Aurora A kinase domain (40 nM), 32P incorporation [3] [µM]",Binder,stoichiometry N [1]
binds,,"VNWDAFSMPELHNFLRILQREEEEHLRQILQKYSYCRQKIQEALHACPLG (domain or fragment, UniProt Q9NS23-2 291-340, looked up, Ras-association domain family 1 isoform A (RASSF1A), residues 291-340 (SARAH domain); numbers count on: isoform A; 51 kDa with the MBP tag; Monomer-dimer equilibrium by SEC; also called isolated SARAH domain; SARAH domain construct; not shown: MBP, N-terminal, kept) [SARAH domain of RASSF1A (residues 291–340)]",2
,10,RASSF1A ∆N-∆loop (residues 121–340 lacking the loop 177–197) (domain or fragment) EPVEWETPDLSQAEIEQKIKEYNAQINSNLFMSLNKDGSYTGFIKVQLKLVRPVSVVRRRTSFYLPKDAVKHLHVLSRTRAREVIEALLRKFLVVDDPRKFALFERAERHGQVYLRKLLDDEQPLRLRLLAGPSDKALSFVLKENDSGEVNWDAFSMPELHNFLRILQREEEEHLRQILQKYSYCRQKIQEALHACPLG,
,,"RASSF1A ∆N (residues 121–340) (domain or fragment, UniProt Q9NS23-2 121-340, looked up, Ras-association domain family 1 isoform A (RASSF1A), 340 residues, residues 121-340 (RBD plus SARAH domain); numbers count on: isoform A; 69 kDa with the MBP tag; Monomer-dimer equilibrium by SEC; also called ΔN; ΔN fragment; not shown: MBP, N-terminal, kept) EPVEWETPDLSQAEIEQKIKEYNAQINSNLFMSLNKDGSYTGFIKVQLKLVRPVSVPSSKKPPSLQDARRGPGRGTSVRRRTSFYLPKDAVKHLHVLSRTRAREVIEALLRKFLVVDDPRKFALFERAERHGQVYLRKLLDDEQPLRLRLLAGPSDKALSFVLKENDSGEVNWDAFSMPELHNFLRILQREEEEHLRQILQKYSYCRQKIQEALHACPLG",2
